Source: patent publication US10428140B2, “Anti-EphA4 antibody” (EISAI R&D MANAGEMENT CO., LTD., priority 2015, dated 2019)
Values joined by “and” are separate entries in the source; they are usually repeats but may differ in a detail not shown here. Identical values can stand only once.

Tests used:
[1] = molecular target: T1, human EphA4 (binding to human Ephrin A5) (Homo sapiens, UniProt P54764); assay: Human EphA4-human ligand binding inhibition ELISA of humanized antibodies (biotinylated Ephrin A5-Fc); conditions: biotinylated human Ephrin A5-Fc 0.7 nM
T1 construct: made in house; not restated for the human SEAP-His protein
In short: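 Wells coated with anti-alkaline phosphatase antibody captured human EphA4 extracellular region-SEAP-His at 10 nM. Biotinylated human Ephrin A5-Fc (0.7 nM) and serially diluted humanized antibody (0-3000 nM) were added together for 1 h at room temperature. Bound ligand was detected with HRP-streptavidin and TMBZ at A450.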

human EphA4 = molecular target: T2, human EphA4 (Homo sapiens, UniProt P54764); assay: Affinity of humanized antibodies by SPR (Biacore T200); type: binding; conditions: human EphA4 extracellular region-SEAP-His; for ka / kd: 1:1 binding model; for Kd: KD=kd/ka
T2 construct: made in house; not restated for the human SEAP-His protein
In short: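 Humanized antibodies captured on protein A chip (antibody A via immobilized rat anti-mouse IgG1) at about 30 to 60 RU in HBS-EP; human EphA4 extracellular region-SEAP-His injected single-cycle at 0.6 to 50 nM, 120 s association, 900 s dissociation. KD = kd/ka from 1:1 binding fits.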

T1 sequence (P54764 20-547): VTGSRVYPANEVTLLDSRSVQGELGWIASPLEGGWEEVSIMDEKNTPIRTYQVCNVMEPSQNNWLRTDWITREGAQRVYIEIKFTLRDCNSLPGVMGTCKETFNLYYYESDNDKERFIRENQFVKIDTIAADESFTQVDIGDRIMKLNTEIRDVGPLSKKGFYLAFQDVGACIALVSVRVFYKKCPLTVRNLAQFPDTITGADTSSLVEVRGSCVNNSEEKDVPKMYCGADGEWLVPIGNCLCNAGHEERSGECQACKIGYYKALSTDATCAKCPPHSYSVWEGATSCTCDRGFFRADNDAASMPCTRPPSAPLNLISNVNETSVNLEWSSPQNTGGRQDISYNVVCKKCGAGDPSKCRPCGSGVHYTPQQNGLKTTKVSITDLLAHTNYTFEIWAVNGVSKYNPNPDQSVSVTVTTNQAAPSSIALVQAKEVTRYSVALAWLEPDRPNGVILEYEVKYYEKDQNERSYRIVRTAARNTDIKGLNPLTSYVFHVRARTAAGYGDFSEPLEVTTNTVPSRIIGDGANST
T2 sequence (P54764 20-547): as above

B1: 154 (antibody, V domains shown)
VH: QVQLVQSGSELKKPGASVKVSCKASGYTFTDYSMHWVRQAPGQGLEWMGWINTETGEPTYADDFKGRFVFSLDTSVSTAYLQISSLKAEDTAVYYCARIPLYYYGSRYWYFDVWGQGTTVTVSS
VL: DIQMTQSPSSLSASVGDRVTITCRASENIYRNLAWYQQKPGKAPKLLLYAATNLADGVPSRFSGSGSGTDYTLTISSLQSEDFATYYCQHFWGTPWTFGQGTKVEIK
modifications: synthetic humanized antibody heavy chain variable region sequence; synthetic humanized antibody light chain variable region sequence
[1]
  IC50: 2.5 nM
Human EphA4
  ka: 390000 M⁻¹ s⁻¹
  kd: 0.00065 s⁻¹
  Kd: 2.2 nM

B2: 135 (antibody, V domains shown)
VH: QVQLVQSGSELKKPGASVKVSCKASGYTFTDYSMHWVRQAPGQGLEWMGWINTETGEPTYADDFKGRFVFSLDTSVSTAYLQISSLKAEDTAVYYCARIPLYYYGSRYWYFDVWGQGTTVTVSS
VL: EIVMTQSPATLSVSPGERATLSCRASENIYRNLAWYQQKPGQSPRLLIYAATNLADGIPARFSGSGSGTEYTLTISSLQSEDFAVYYCQHFWGTPWTFGQGTKVEIK
modifications: synthetic humanized antibody heavy chain variable region sequence; synthetic humanized antibody light chain variable region sequence
[1]
  IC50: 2.5 nM
Human EphA4
  ka: 320000 M⁻¹ s⁻¹
  kd: 0.0004 s⁻¹
  Kd: 1.3 nM

B3: 145 (antibody, V domains shown)
VH: QVQLVQSGSELKKPGASVKVSCKASGYTFTDYSMHWVRQAPGQGLKWMGWINTETGEPTYADDFKGRFVFSLDTSVSTAYLQISSLKAEDTAVYYCARIPLYYYGSRYWYFDVWGQGTTVTVSS
VL: DIQMTQSPSSLSASVGDRVTITCRASENIYRNLAWYQQKPGKAPKLLLYAATNLADGVPSRFSGSGSGTDYTLTISSLQSEDFATYYCQHFWGTPWTFGQGTKVEIK
modifications: synthetic humanized antibody heavy chain variable region sequence; synthetic humanized antibody light chain variable region sequence
[1]
  IC50: 3.7 nM
Human EphA4
  ka: 330000 M⁻¹ s⁻¹
  kd: 0.00065 s⁻¹
  Kd: 2 nM

B4: 159 (antibody, V domains shown)
VH: QVQLVQSGSELKKPGASVKVSCKASGYTFTDYSMHWVRQAPGQGLKWMGWINTETGEPTYADDFKGRFVFSLDTSVSTAYLQISSLKAEDTAVYYCARIPLYYYGSRYWYFDVWGQGTTVTVSS
VL: DIQMTQSPSSLSASVGDRVTITCRASENIYRNLAWYQQKPGKAPQLLLYAATNLADGVPSRFSGSGSGTDYTLTISSLQPEDFATYYCQHFWGTPWTFGQGTKVEIK
modifications: synthetic humanized antibody heavy chain variable region sequence; synthetic humanized antibody light chain variable region sequence
[1]
  IC50: 2.6 nM
Human EphA4
  ka: 310000 M⁻¹ s⁻¹
  kd: 0.00061 s⁻¹
  Kd: 2 nM

B5: 144 (antibody, V domains shown)
VH: QVQLVQSGSELKKPGASVKVSCKASGYTFTDYSMHWVRQAPGQGLEWMGWINTETGEPTYADDFKGRFVFSLDTSVSTAYLQISSLKAEDTAVYYCARIPLYYYGSRYWYFDVWGQGTTVTVSS
VL: DIQMTQSPSSLSASVGDRVTITCRASENIYRNLAWYQQKPGKAPQLLLYAATNLADGVPSRFSGSGSGTDYTLTISSLQPEDFATYYCQHFWGTPWTFGQGTKVEIK
modifications: synthetic humanized antibody heavy chain variable region sequence; synthetic humanized antibody light chain variable region sequence
[1]
  IC50: 3.6 nM
Human EphA4
  ka: 400000 M⁻¹ s⁻¹
  kd: 0.00078 s⁻¹
  Kd: 2 nM

B6: 160 (antibody, V domains shown)
VH: QIQLVQSGSELKKPGASVKVSCKASGYTFTDYSMHWVRQAPGQGLKWMGWINTETGEPTYADDFKGRFVFSLDTSVSTAYLQISSLKAEDTAVYYCARIPLYYYGSRYWYFDVWGQGTTVTVSS
VL: DIQMTQSPSSLSASVGDRVTITCRASENIYRNLAWYQQKPGKAPQLLLYAATNLADGVPSRFSGSGSGTDYTLTISSLQPEDFATYYCQHFWGTPWTFGQGTKVEIK
modifications: synthetic humanized antibody heavy chain variable region sequence; synthetic humanized antibody light chain variable region sequence
[1]
  IC50: 2.2 nM
Human EphA4
  ka: 320000 M⁻¹ s⁻¹
  kd: 0.00061 s⁻¹
  Kd: 1.9 nM

B7: 155 (antibody, V domains shown)
VH: QIQLVQSGSELKKPGASVKVSCKASGYTFTDYSMHWVRQAPGQGLKWMGWINTETGEPTYADDFKGRFVFSLDTSVSTAYLQISSLKAEDTAVYYCARIPLYYYGSRYWYFDVWGQGTTVTVSS
VL: DIQMTQSPSSLSASVGDRVTITCRASENIYRNLAWYQQKPGKAPKLLLYAATNLADGVPSRFSGSGSGTDYTLTISSLQSEDFATYYCQHFWGTPWTFGQGTKVEIK
modifications: synthetic humanized antibody heavy chain variable region sequence; synthetic humanized antibody light chain variable region sequence
[1]
  IC50: 2.4 nM
Human EphA4
  ka: 330000 M⁻¹ s⁻¹
  kd: 0.00064 s⁻¹
  Kd: 1.9 nM

B8: 158 (antibody, V domains shown)
VH: QVQLVQSGSELKKPGASVKVSCKASGYTFTDYSMHWVRQAPGQGLKWMGWINTETGEPTYAQGFTGRFVFSLDTSVSTAYLQISSLKAEDTAVYYCARIPLYYYGSRYWYFDVWGQGTTVTVSS
VL: DIQMTQSPSSLSASVGDRVTITCRASENIYRNLAWYQQKPGKAPQLLLYAATNLADGVPSRFSGSGSGTDYTLTISSLQPEDFATYYCQHFWGTPWTFGQGTKVEIK
modifications: synthetic humanized antibody heavy chain variable region sequence; synthetic humanized antibody light chain variable region sequence
[1]
  IC50: 2.8 nM
Human EphA4
  ka: 310000 M⁻¹ s⁻¹
  kd: 0.00061 s⁻¹ and 0.00056 s⁻¹
  Kd: 1.9 nM and 1.6 nM

B9: 134 (antibody, V domains shown)
VH: QVQLVQSGSELKKPGASVKVSCKASGYTFTDYSMHWVRQAPGQGLKWMGWINTETGEPTYAQGFTGRFVFSLDTSVSTAYLQISSLKAEDTAVYYCARIPLYYYGSRYWYFDVWGQGTTVTVSS
VL: EIVMTQSPATLSVSPGERATLSCRASENIYRNLAWYQQKPGQSPRLLIYAATNLADGIPARFSGSGSGTEYTLTISSLQSEDFAVYYCQHFWGTPWTFGQGTKVEIK
modifications: synthetic humanized antibody heavy chain variable region sequence; synthetic humanized antibody light chain variable region sequence
[1]
  IC50: 3 nM
Human EphA4
  ka: 280000 M⁻¹ s⁻¹
  kd: 0.00032 s⁻¹
  Kd: 1.2 nM

B10: 132 (antibody, V domains shown)
VH: QIQLVQSGSELKKPGASVKVSCKASGYTFTDYSMHWVRQAPGQGLKWMGWINTETGEPTYAQGFTGRFVFSLDTSVSTAYLQISSLKAEDTAVYYCARIPLYYYGSRYWYFDVWGQGTTVTVSS
VL: EIVMTQSPATLSVSPGERATLSCRASENIYRNLAWYQQKPGQSPRLLIYAATNLADGIPARFSGSGSGTEYTLTISSLQSEDFAVYYCQHFWGTPWTFGQGTKVEIK
modifications: synthetic humanized antibody heavy chain variable region sequence; synthetic humanized antibody light chain variable region sequence
[1]
  IC50: 3.1 nM
Human EphA4
  ka: 270000 M⁻¹ s⁻¹
  kd: 0.00031 s⁻¹
  Kd: 1.2 nM

B11: 133 (antibody, V domains shown)
VH: QVQLVQSGSELKKPGASVKVSCKASGYTFTDYSMHWVRQAPGQGLEWMGWINTETGEPTYAQGFTGRFVFSLDTSVSTAYLQISSLKAEDTAVYYCARIPLYYYGSRYWYFDVWGQGTTVTVSS
VL: EIVMTQSPATLSVSPGERATLSCRASENIYRNLAWYQQKPGQSPRLLIYAATNLADGIPARFSGSGSGTEYTLTISSLQSEDFAVYYCQHFWGTPWTFGQGTKVEIK
modifications: synthetic humanized antibody heavy chain variable region sequence; synthetic humanized antibody light chain variable region sequence
[1]
  IC50: 3 nM
Human EphA4
  ka: 300000 M⁻¹ s⁻¹
  kd: 0.00032 s⁻¹
  Kd: 1.1 nM

B12: 157 (antibody, V domains shown)
VH: QVQLVQSGSELKKPGASVKVSCKASGYTFTDYSMHWVRQAPGQGLEWMGWINTETGEPTYAQGFTGRFVFSLDTSVSTAYLQISSLKAEDTAVYYCARIPLYYYGSRYWYFDVWGQGTTVTVSS
VL: DIQMTQSPSSLSASVGDRVTITCRASENIYRNLAWYQQKPGKAPQLLLYAATNLADGVPSRFSGSGSGTDYTLTISSLQPEDFATYYCQHFWGTPWTFGQGTKVEIK
modifications: synthetic humanized antibody heavy chain variable region sequence; synthetic humanized antibody light chain variable region sequence
[1]
  IC50: 2.6 nM
Human EphA4
  ka: 350000 M⁻¹ s⁻¹
  kd: 0.00068 s⁻¹
  Kd: 2 nM
